In article PMC3477478 one finds Km data, which are given here for 1 protein.

Substrate in the data set: CC(=O)O
Put plainly: purified protein. As to conditions: 10 mM ATP, 0.47 mM HSCoA, 10 mM MgCl2, 120 mM hydroxylamine, 10 mM reduced glutathione, Tris/HCl pH 7.5, 37 °C, apparent Km.

B1: K. stuttgartiensis ACS (kustc1128), AMP-forming acetyl-CoA synthetase (Candidatus Kuenenia stuttgartensis) (protein)
chain: MNKTEIINKHPEAFNLICYEDQHKNFSWETVKKELGVGGNKVNIAYEAIDKHATTWRKNKVALYWEGSDGTHLKYTFQELKILSDKCANMLQSLGVGKGDRVFLFLPRLPELFINMIAIAKLGAISGPMFSAFGPDAVRDRLQNSEAKVLITTPELKERVDAVLWELPKLERIVLVSVKEDYELEEGNVCYKTLMKDAPERFEMEWMDMEDPLYLLYTSGTTGKPKGITHVHNDMISYYITTKWSLDLRDDDIYWCTADPGWVTGTVYGMWGPWLNGVSMYIYDGRFDVNKWYEAIQSYKITVWYTAPTALRMLMKSGDYLVAQYDLESLRYICSVGEPLNPEVIKWGMNVYNLPIHDTWWQTETGSIMIANYPCIPIKPGSMGKPFPGIKAAIIDSEGNELPDGHHGILALKPGWPSMLRKVWGDEGRFNEYFNITGWYTTGDTAYKDEEGYFWFVGRADDVINTSGHRVGPFEVESALLEHRAVAEAGVIGKPDPERGEIIKAFIALKEGFKPSSELGEEIKKFIKHHLAAHAYPREIEFCENLPKTRSGKIMRRLLKAKDLGLPTGDISTLED
For B1, the Km was determined as 200 µM.
